Measurements: patent publication US20170369592A1, “NOVEL ANTI-FIBROBLAST ACTIVATION PROTEIN (FAP) ANTIBODIES AND USES DERIVED THEREOF” (Mabimmune Diagnostics AG, priority 2015, published 2017)

How the values were obtained:
[1] = biological target: directly coated FAP peptides mixture (cFAP); assay: Direct ELISA, mixture of FAP-specific peptides directly coated; assay type: binding, human; details: non-linear regression
Experimental: ELISA assays were performed with varying antibody concentrations to validate the binding of the exemplary antibodies of the present invention to FAP and to be able to determine their half maximal effective concentration (EC50). For the exemplary recombinant human NI-206.82C2, NI-206.59B4, NI-206.22F7, NI-206.27E8, NI-206.12G4 and NI-206.17A6 antibodies, 96-well microplates (Costar, Corning, USA) were coated with FAP, with a mixture of the 3 peptides or with BSA (Sigma-Aldrich, Buchs, Switzerland) diluted to a concentration of 5 μg/ml in carbonate ELISA coating buffer (15 mM Na2CO3, 35 mM NaHCO3, pH 9.4) for the direct ELISA. For the capture ELISA, the microplates were coated with mouse anti-His monoclonal antibody (Clontech) diluted to a concentration of 3 μg/ml in PBS, the plates were then blocked, FAP or BSA were diluted to a concentration of 2 μg/ml in PBS and added to the plates to be captured. The binding efficiency of the antibodies was then tested. The exemplary NI-206.82C2 antibody specifically and strongly binds to the captured FAP and less efficiently to the directly coated FAP. The exemplary NI-206.59B4 antibody specifically, strongly and similarly binds to the captured FAP and to the directly coated FAP.
The EC50 values were estimated by a non-linear regression using GraphPad Prism (San Diego, USA) software. […] The binding of NI-206.12G4 towards sFAP was not tested.

[2] = test system: multiple myeloma cells and tumor stroma in the syngeneic MOPC315.BM mouse model; assay: Immunofluorescence on murine multiple myeloma tissues; details: Cy5 labelled antibody, MOPC315.BM BALB/c mice
Experimental: BALB/c mice were injected with 2×10^6 of the murine multiple myeloma cell line […] intravenously. BALB/c mice were injected with a vehicle-only control. Bone tissue was harvested and fixed in 4% PFA, decalcified in 10% EDTA (pH 7.4), embedded in paraffin before being sectioned (4 μm) and rehydrated. Then, CD138 mAb (Clone 281-2, BD Pharmingen) and Cy5 labelled NI-206.82C2 were used to identify MOPC315.BM.Luc cell infiltration, and NI-206.82C2 binding to these cells and surrounding stromal cells in the tissue sections. Stained tissue sections were then imaged using a fluorescent microscope (FIG. 13).

FAP from human plasma = biological target: T1, FAP from human plasma (Homo sapiens, UniProt Q12884); assay: Immunoprecipitation of FAP from human plasma, α2AP-AMC cleavage in supernatant; assay type: biochemical; details: compared to plasma before immunoprecipitation
T1 construct: from tissue; host or cells: human blood plasma
T1 sequence (Q12884 24-760 limits assumed): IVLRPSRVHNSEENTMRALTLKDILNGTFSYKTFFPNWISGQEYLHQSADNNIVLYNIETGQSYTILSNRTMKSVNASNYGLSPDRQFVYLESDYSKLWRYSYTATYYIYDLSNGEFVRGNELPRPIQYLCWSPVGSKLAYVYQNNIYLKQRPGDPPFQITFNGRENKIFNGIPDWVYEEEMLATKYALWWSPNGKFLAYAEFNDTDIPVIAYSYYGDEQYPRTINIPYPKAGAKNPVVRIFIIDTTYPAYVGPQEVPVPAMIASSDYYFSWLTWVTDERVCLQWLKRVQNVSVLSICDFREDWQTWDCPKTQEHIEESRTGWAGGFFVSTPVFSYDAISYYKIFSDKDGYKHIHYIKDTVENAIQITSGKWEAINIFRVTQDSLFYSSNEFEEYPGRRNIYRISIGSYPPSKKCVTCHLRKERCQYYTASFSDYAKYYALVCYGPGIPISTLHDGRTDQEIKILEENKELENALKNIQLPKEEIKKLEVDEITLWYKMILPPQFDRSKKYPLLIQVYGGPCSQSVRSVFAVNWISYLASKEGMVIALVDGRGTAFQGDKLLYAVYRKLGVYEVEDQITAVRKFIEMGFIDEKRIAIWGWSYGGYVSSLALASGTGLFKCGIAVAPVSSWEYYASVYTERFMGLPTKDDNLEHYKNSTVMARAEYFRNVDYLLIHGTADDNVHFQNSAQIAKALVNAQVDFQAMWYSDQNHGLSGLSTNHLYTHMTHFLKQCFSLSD
Experimental: 100 μL of PureProteome G Magnetic Beads (Millipore LSKMAGG02) were suspended in 500 μL of 25 mM TRIS, 0.15M NaCl, and 0.1% Tween 20. Human plasma was diluted 1:5 in PBS to an end volume of 125 μL, separated into four tubes, and incubated for 30 min at RT with rotation. Beads were then collected with a magnetic stand, and the pre-cleared supernatant was transferred to a new tube containing magnetic beads coated with 82C2, 43A11, or 3A1. Antibody-conjugated beads were incubated with the plasma dilution overnight at 4° C. while rotating. Beads were then collected with a magnetic stand and the supernatant was removed of analysis of α2AP-AMC cleavage activity. To determine α2AP-AMC activity in the supernatants, a half area black 96 well plate was blocked with sterile filtered 5% BSA at 37° C. for 1h. Then 40 μL of PBS was added to all the wells, 5 μL of the supernatant solutions to the appropriate wells, and 5 μL of α2AP-AMC solution in methanol was added for a final assay concentration of 10 μM. The fluorescence intensity (cleaved AMC) was measured at 360 nm excitation and 460 nm emission every 3 min over a total time of 30 min and the reaction velocity was calculated using Graphpad Prism 6 software.

4T1 breast tumor = assay: In-vivo fluorescence imaging in 4T1 breast tumor bearing Balb/c mice; details: fluorescently labeled antibody, tumor mouse model
Experimental: These antibodies are designated as A680-82C2 (Alexa 680 labelled 82C2) and A680-43A11 (Alexa 680 labelled 43A11).
A murine cancer model was generated by the injection of 100′000 4T1 cultured breast tumor cells orthotopically into the 2nd left breast of Balb/c immunocompetent mice and allowed to grow for 7 days. Prior to in vivo imaging, the animals were shaved and de-epilated to remove fur for minimal absorbance and scattering of the incident optical light. In-vivo imaging was performed with the Maestro 500 imaging system (Cambridge Research Inc, Woburn, USA). For A680-82C2 detection, a band pass filter from 615 nm-665 nm and a highpass filter over 700 nm were used for excitation and emission light respectively, and fluorescence was detected by a CCD camera (cooled to 11° C.). A series of images were acquired at different wavelengths and then subjected to spectral unmixing (deconvolution of collected optical spectra; this enabled the unmixing of the Alexa680 fluorescence pattern from tissue auto-fluorescence and other spectral contributions).
The 4T1-breast tumor bearing Balb/c mice (3-4 in each group) were then injected on day 7 after innoculation with 2 mg/kg of A680-82C2 or A680-43A11. Whole mice images were acquired at the following timepoints: before antibody injection, immediately after antibody injection, 6h, 24h, 48h, and 6d after antibody injection.

B1: NI-206.82C2: recombinant human memory B cell-derived monoclonal anti-FAP IgG1 antibody, variable regions in FIG. 1A, FAP inhibitory (antibody, V domains shown)
VH: QVQLQQSGPGLVKPSQTLSLTCAISGDSVSSNSVTWNWIRQSPSRGLEWLGRTYYRSKWYNDYAVSVKGRITINPDTSKNQFYLQLKSVTPEDAAVYYCARDSSILYGDYWGQGTLVTVSS
VL: QAVLTQPSSLSASPGASASLTCTLPSGINVGTYRIFWFQQKPGSPPQYLLSYKSDSDNHQGSGVPSRFSGSKDASANAGILLISGLQSEDEADYYCMIWHSSAWVFGGGTKLTVL
With B1 the “EC50, binding to directly coated FAP peptides mixture (cFAP)” value [1] was “did not show any binding”, the “binding to multiple myeloma cells and tumor stroma” value [2] was “binds” and the “rate of FAP substrate alpha 2 anti-plasmin (α2AP-AMC) cleavage in plasma after immunoprecipitation” value (FAP from human plasma) was “significantly reduces”. For the same molecule, the “antibody concentration after 6 d post antibody injection” value (4T1 breast tumor) was “almost zero”.
